{"source": "patent US10370433B2", "about": "“Compositions and methods for diagnosis and treatment of cancer” (BIONTECH AG, priority 2015, dated 2019)", "key": {"[1]": {"settings": "human, in vivo, iv"}, "in vivo": {"assay": "in vivo", "settings": "BALB/c nu/nu, mouse, iv, total radioactivity; for tissue uptake at 1 h / tissue uptake at 2 h / tissue uptake at 4 h / tissue uptake at 6 h / tissue uptake at 24 h / tissue uptake at 0.5 h: Mean % ID/g; for tissue uptake at 0.5 h: 30 min"}}, "note": "Like-named read-outs stand apart in the source and are kept apart here.", "data": [{"compound": "CC[C@H](C)[C@@H]1NC(=O)[C@@H]2CSSC[C@H](NC(=O)[C@H](C)NC(=O)CNC(=O)[C@H](CO)NC(=O)CNC(=O)CON=CC(=O)NCCCC[C@H](NC(=O)[C@H](CO)NC(=O)CNC(=O)[C@H](CO)NC(=O)CNC(=O)[C@H](CCCCNC(=O)C=NOCC(=O)NCC(=O)N[C@@H](CO)C(=O)NCC(=O)N[C@@H](C)C(=O)N[C@H]3CSSC[C@@H]4NC(=O)[C@H](CCCNC(=N)N)NC(=O)CNC(=O)[C@@H]5CCCN5C(=O)[C@@H]5CSSC[C@@H](C(=O)NCC(=O)O)NC(=O)[C@H](Cc6ccc(O)cc6)NC(=O)CNC(=O)[C@H](CC(N)=O)NC(=O)CNC(=O)[C@H](CCCNC(=N)N)NC(=O)[C@H](CSSC[C@H](NC(=O)[C@H](CC(=O)O)NC(=O)[C@@H]6CCCN6C(=O)CNC(=O)[C@H](CCCNC(=N)N)NC(=O)CNC(=O)[C@@H]6CCCN6C(=O)[C@H]([C@@H](C)O)NC(=O)[C@H](Cc6c[nH]c7ccccc67)NC(=O)[C@H](CC(N)=O)NC(=O)[C@H](CO)NC(=O)[C@H](Cc6ccc(O)cc6)NC(=O)[C@@H]6CCCN6C3=O)C(=O)N[C@@H](CCCNC(=N)N)C(=O)N[C@@H](CCCNC(=N)N)C(=O)N[C@@H](CC(=O)O)C(=O)N[C@@H](CO)C(=O)N[C@@H](CC(=O)O)C(=O)N5)NC(=O)[C@H]([C@@H](C)CC)NC4=O)NC(=O)[C@H](CO)NC(=O)CNC(=O)[C@H](CO)NC(=O)CNC(=O)[C@H](CCCCNC(=O)C=NOCC(=O)NCC(=O)N[C@@H](CO)C(=O)NCC(=O)N[C@@H](C)C(=O)N[C@H]3CSSC[C@@H]4NC(=O)[C@H](CCCNC(=N)N)NC(=O)CNC(=O)[C@@H]5CCCN5C(=O)[C@@H]5CSSC[C@@H](C(=O)NCC(=O)O)NC(=O)[C@H](Cc6ccc(O)cc6)NC(=O)CNC(=O)[C@H](CC(N)=O)NC(=O)CNC(=O)[C@H](CCCNC(=N)N)NC(=O)[C@H](CSSC[C@H](NC(=O)[C@H](CC(=O)O)NC(=O)[C@@H]6CCCN6C(=O)CNC(=O)[C@H](CCCNC(=N)N)NC(=O)CNC(=O)[C@@H]6CCCN6C(=O)[C@H]([C@@H](C)O)NC(=O)[C@H](Cc6c[nH]c7ccccc67)NC(=O)[C@H](CC(N)=O)NC(=O)[C@H](CO)NC(=O)[C@H](Cc6ccc(O)cc6)NC(=O)[C@@H]6CCCN6C3=O)C(=O)N[C@@H](CCCNC(=N)N)C(=O)N[C@@H](CCCNC(=N)N)C(=O)N[C@@H](CC(=O)O)C(=O)N[C@@H](CO)C(=O)N[C@@H](CC(=O)O)C(=O)N5)NC(=O)[C@H]([C@@H](C)CC)NC4=O)NC(=O)[C@H](CO)NC(=O)CNC(=O)[C@H](CO)NC(=O)CNC(=O)CN3CCN(CC(=O)O)CCN(CC(=O)O)CCN(CC(=O)O)CC3)C(=O)O)C(=O)N3CCC[C@H]3C(=O)N[C@@H](Cc3ccc(O)cc3)C(=O)N[C@@H](CO)C(=O)N[C@@H](CC(N)=O)C(=O)N[C@@H](Cc3c[nH]c4ccccc34)C(=O)N[C@@H]([C@@H](C)O)C(=O)N3CCC[C@H]3C(=O)NCC(=O)N[C@@H](CCCNC(=N)N)C(=O)NCC(=O)N3CCC[C@H]3C(=O)N[C@@H](CC(=O)O)C(=O)N[C@H]3CSSC[C@H](NC1=O)C(=O)N[C@@H](CCCNC(=N)N)C(=O)NCC(=O)N[C@@H](CC(N)=O)C(=O)NCC(=O)N[C@@H](Cc1ccc(O)cc1)C(=O)N[C@H](C(=O)NCC(=O)O)CSSC[C@H](NC(=O)[C@H](CC(=O)O)NC(=O)[C@H](CO)NC(=O)[C@H](CC(=O)O)NC(=O)[C@H](CCCNC(=N)N)NC(=O)[C@H](CCCNC(=N)N)NC3=O)C(=O)N1CCC[C@H]1C(=O)NCC(=O)N[C@@H](CCCNC(=N)N)C(=O)N2", "note": "(single isomer, unassigned) [^177Lu-(MC-FA-012)3, metal not drawn]", "values": [{"measurement": "Mean % ID/g, Brain", "setting": "CT26-huSeprase tumors; 30 min", "value": 0.6895, "unit": "% ID/g"}, {"measurement": "Mean % ID/g, Injection site", "setting": "CT26-huSeprase tumors; 30 min", "value": 4.2434, "unit": "% ID/g"}, {"measurement": "Mean % ID/g, Intestine", "setting": "CT26-huSeprase tumors; 30 min", "value": 0.7435, "unit": "% ID/g"}, {"measurement": "Mean % ID/g, Kidneys", "setting": "CT26-huSeprase tumors; 30 min", "value": 286.7812, "unit": "% ID/g"}, {"measurement": "Mean % ID/g, Muscle", "setting": "CT26-huSeprase tumors; 30 min", "value": 0.0589, "unit": "% ID/g"}, {"measurement": "Mean % ID/g, Spleen", "setting": "CT26-huSeprase tumors; 30 min", "value": 0.9253, "unit": "% ID/g"}, {"measurement": "Mean % ID/g, Tumor", "setting": "CT26-huSeprase tumors; 30 min", "value": 9.8546, "unit": "% ID/g"}, {"measurement": "Mean % ID/g, Brain", "setting": "CT26-huSeprase tumors; 1 h", "value": 0.2284, "unit": "% ID/g"}, {"measurement": "Mean % ID/g, Injection site", "setting": "CT26-huSeprase tumors; 1 h", "value": 15.2418, "unit": "% ID/g"}, {"measurement": "Mean % ID/g, Intestine", "setting": "CT26-huSeprase tumors; 1 h", "value": 0.5079, "unit": "% ID/g"}, {"measurement": "Mean % ID/g, Muscle", "setting": "CT26-huSeprase tumors; 1 h", "value": 0.0423, "unit": "% ID/g"}, {"measurement": "Mean % ID/g, Spleen", "setting": "CT26-huSeprase tumors; 1 h", "value": 0.5493, "unit": "% ID/g"}, {"measurement": "Mean % ID/g, Tumor", "setting": "CT26-huSeprase tumors; 1 h", "value": 6.7929, "unit": "% ID/g"}, {"measurement": "Mean % ID/g, Brain", "setting": "CT26-huSeprase tumors; 2 h", "value": 0.5818, "unit": "% ID/g"}, {"measurement": "Mean % ID/g, Intestine", "setting": "CT26-huSeprase tumors; 2 h", "value": 1.0902, "unit": "% ID/g"}, {"measurement": "Mean % ID/g, Kidneys", "setting": "CT26-huSeprase tumors; 2 h", "value": 272.3888, "unit": "% ID/g"}, {"measurement": "Mean % ID/g, Muscle", "setting": "CT26-huSeprase tumors; 2 h", "value": 0.0317, "unit": "% ID/g"}, {"measurement": "Mean % ID/g, Spleen", "setting": "CT26-huSeprase tumors; 2 h", "value": 0.6561, "unit": "% ID/g"}, {"measurement": "Mean % ID/g, Tumor", "setting": "CT26-huSeprase tumors; 2 h", "value": 8.1504, "unit": "% ID/g"}, {"measurement": "Mean % ID/g, Brain", "setting": "CT26-huSeprase tumors; 4 h", "value": 0.3159, "unit": "% ID/g"}, {"measurement": "Mean % ID/g, Intestine", "setting": "CT26-huSeprase tumors; 4 h", "value": 0.2913, "unit": "% ID/g"}, {"measurement": "Mean % ID/g, Kidneys", "setting": "CT26-huSeprase tumors; 4 h", "value": 245.1877, "unit": "% ID/g"}, {"measurement": "Mean % ID/g, Muscle", "setting": "CT26-huSeprase tumors; 4 h", "value": 0.0241, "unit": "% ID/g"}, {"measurement": "Mean % ID/g, Spleen", "setting": "CT26-huSeprase tumors; 4 h", "value": 0.5931, "unit": "% ID/g"}, {"measurement": "Mean % ID/g, Tumor", "setting": "CT26-huSeprase tumors; 4 h", "value": 7.7667, "unit": "% ID/g"}, {"measurement": "Mean % ID/g, Brain", "setting": "CT26-huSeprase tumors; 6 h", "value": 0.2159, "unit": "% ID/g"}, {"measurement": "Mean % ID/g, Intestine", "setting": "CT26-huSeprase tumors; 6 h", "value": 0.9309, "unit": "% ID/g"}, {"measurement": "Mean % ID/g, Kidneys", "setting": "CT26-huSeprase tumors; 6 h", "value": 259.4467, "unit": "% ID/g"}, {"measurement": "Mean % ID/g, Muscle", "setting": "CT26-huSeprase tumors; 6 h", "value": 0.1259, "unit": "% ID/g"}, {"measurement": "Mean % ID/g, Spleen", "setting": "CT26-huSeprase tumors; 6 h", "value": 0.6287, "unit": "% ID/g"}, {"measurement": "Mean % ID/g, Tumor", "setting": "CT26-huSeprase tumors; 6 h", "value": 7.8057, "unit": "% ID/g"}, {"measurement": "Mean % ID/g, Brain", "setting": "CT26-huSeprase tumors; 24 h", "value": 0.2151, "unit": "% ID/g"}, {"measurement": "Mean % ID/g, Intestine", "setting": "CT26-huSeprase tumors; 24 h", "value": 0.3347, "unit": "% ID/g"}, {"measurement": "Mean % ID/g, Kidneys", "setting": "CT26-huSeprase tumors; 24 h", "value": 213.4107, "unit": "% ID/g"}, {"measurement": "Mean % ID/g, Muscle", "setting": "CT26-huSeprase tumors; 24 h", "value": 0.0253, "unit": "% ID/g"}, {"measurement": "Mean % ID/g, Spleen", "setting": "CT26-huSeprase tumors; 24 h", "value": 0.4561, "unit": "% ID/g"}, {"measurement": "Mean % ID/g, Tumor", "setting": "CT26-huSeprase tumors; 24 h", "value": 5.8505, "unit": "% ID/g"}, {"measurement": "Mean % ID/g, Kidneys", "setting": "CT26-huSeprase tumors; mouse, in vivo", "value": 222.3177, "unit": "% ID/g"}, {"measurement": "signal in tumor", "setting": "CT26-huSeprase tumors; mouse, in vivo", "value": "9.9-5.9"}, {"measurement": "tumor targeting", "setting": "CT26-huSeprase tumors; mouse, in vivo", "value": "specific tumor targeting"}, {"measurement": "acute nephrotoxicity", "setting": "[1]", "value": "no acute nephrotoxicity"}, {"measurement": "tissue uptake at 1 h", "setting": "in vivo", "value": 0.67, "unit": "%ID/g"}, {"measurement": "tissue uptake at 2 h", "setting": "in vivo", "value": 0.607, "unit": "%ID/g"}, {"measurement": "tissue uptake at 4 h", "setting": "in vivo", "value": 0.451, "unit": "%ID/g"}, {"measurement": "tissue uptake at 6 h", "setting": "in vivo", "value": 0.648, "unit": "%ID/g"}, {"measurement": "tissue uptake at 24 h", "setting": "in vivo", "value": 0.189, "unit": "%ID/g"}, {"measurement": "tissue uptake at 0.5 h", "setting": "in vivo; Blood", "value": 1.35, "unit": "%ID/g"}, {"measurement": "tissue uptake at 1 h", "setting": "in vivo; Blood", "value": 0.36, "unit": "%ID/g"}, {"measurement": "tissue uptake at 2 h", "setting": "in vivo; Blood", "value": 0.135, "unit": "%ID/g"}, {"measurement": "tissue uptake at 4 h", "setting": "in vivo; Blood", "value": 0.042, "unit": "%ID/g"}, {"measurement": "tissue uptake at 6 h", "setting": "in vivo; Blood", "value": 0.0374, "unit": "%ID/g"}, {"measurement": "tissue uptake at 24 h", "setting": "in vivo; Blood", "value": 0.0429, "unit": "%ID/g"}, {"measurement": "tissue uptake at 0.5 h", "setting": "in vivo; Heart", "value": 0.615, "unit": "%ID/g"}, {"measurement": "tissue uptake at 1 h", "setting": "in vivo; Heart", "value": 0.187, "unit": "%ID/g"}, {"measurement": "tissue uptake at 2 h", "setting": "in vivo; Heart", "value": 0.128, "unit": "%ID/g"}, {"measurement": "tissue uptake at 4 h", "setting": "in vivo; Heart", "value": 0.102, "unit": "%ID/g"}, {"measurement": "tissue uptake at 6 h", "setting": "in vivo; Heart", "value": 0.0876, "unit": "%ID/g"}, {"measurement": "tissue uptake at 24 h", "setting": "in vivo; Heart", "value": 0.0641, "unit": "%ID/g"}, {"measurement": "tissue uptake at 2 h", "setting": "in vivo; Injection site", "value": 2.87, "unit": "%ID/g"}, {"measurement": "tissue uptake at 4 h", "setting": "in vivo; Injection site", "value": 2.61, "unit": "%ID/g"}, {"measurement": "tissue uptake at 6 h", "setting": "in vivo; Injection site", "value": 1.57, "unit": "%ID/g"}, {"measurement": "tissue uptake at 24 h", "setting": "in vivo; Injection site", "value": 0.983, "unit": "%ID/g"}, {"measurement": "tissue uptake at 0.5 h", "setting": "in vivo; Liver", "value": 0.668, "unit": "%ID/g"}, {"measurement": "tissue uptake at 1 h", "setting": "in vivo; Liver", "value": 0.398, "unit": "%ID/g"}, {"measurement": "tissue uptake at 2 h", "setting": "in vivo; Liver", "value": 0.44, "unit": "%ID/g"}, {"measurement": "tissue uptake at 4 h", "setting": "in vivo; Liver", "value": 0.41, "unit": "%ID/g"}, {"measurement": "tissue uptake at 6 h", "setting": "in vivo; Liver", "value": 0.431, "unit": "%ID/g"}, {"measurement": "tissue uptake at 24 h", "setting": "in vivo; Liver", "value": 0.363, "unit": "%ID/g"}, {"measurement": "tissue uptake", "setting": "in vivo; signal in kidney", "value": 287, "unit": "%ID/g"}]}]}
